According to patent US20170190775A1 (published 2017):
Substitutions are numbered along the chain they refer to.

How the values were obtained:
Experiment in all cases: SPR, TREM-1 variant captured by anti-His, Fab as analyte
[1] = target: T1, A24T/Y28F/N30S/R32Q/P70H-cTREM-1-Cmyc2-His6 (construct 0244), partly humanised with back mutation 5 (cynomolgus monkey)
T1 construct: the entry already carries the mutations
T1 chain: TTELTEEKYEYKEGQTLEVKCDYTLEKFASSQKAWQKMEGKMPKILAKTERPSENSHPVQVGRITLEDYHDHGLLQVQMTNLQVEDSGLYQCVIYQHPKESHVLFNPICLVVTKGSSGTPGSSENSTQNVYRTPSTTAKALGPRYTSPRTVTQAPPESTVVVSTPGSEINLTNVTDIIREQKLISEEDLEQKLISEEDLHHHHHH
Method: (§1) Binding studies were performed on a ProteOn Analyzer that measures molecular interactions in real time through surface plasmon resonance. Experiments were run at 25° C. and the samples were stored at 15° C. in the sample compartment. The signal (RU, response units) reported by the ProteOn is directly correlated to the mass on the individual sensor chip surfaces in six parallel flow cells. Anti-His monoclonal antibody was immobilised onto 6 parallel flow cells of a GLM sensor chip using a 1:1 mixture of 0.4 M EDAC [1-ethyl-3-(3-dimethylaminopropyl) carbodiimide hydrochloride] and 0.1 M Sulfo-NHS [N-hydroxysulfosuccinimide]. […] Immobilisation was performed with all steps in horizontal direction. […] Cell culture medium from HEK 293 cells expressing wild type or different mutated variants of human or cynomolgus TREM-1 ECD was diluted 40-60 times in running buffer (10 mM HEPES, 150 mM NaCl, 3 mM EDTA, 0.05% surfactant P20, pH 7.4). TREM-1 proteins were injected over immobilised anti-His capture antibody in the vertical direction at 30 μl/min for 60 s. […] Each Fab was injected over parallel flow cells in the horizontal direction to allow for kinetic analysis of binding to TREM-1 variants captured by anti-His antibody. Prior to injection each Fab was diluted to 0, 5.5 (in one experiment), 16.7 and 50 nM in running buffer, and injected at 100 μl/min for 250 s (association time). The dissociation time following these injections was monitored for 10 minutes. The GLM chip was regenerated after each interaction cycle of TREM-1 and Fab via two 18 s injections of 10 mM Glycine and 50 mM NaOH at 100 μl/min. This regeneration step removed the TREM-1 variants and any bound Fab from the anti-His antibody surface, and allowed for the subsequent binding of the next interaction pair.

[2] = target: T2, cynomolgus TREM-1 partly humanised (construct 0239) (cynomolgus monkey)
T2 chain: T1 chain with E54K
Method: as §1

[3] = target: T3, cynomolgus TREM-1 partly humanised with back mutation 2 (construct 0241) (cynomolgus monkey)
T3 construct: Printed Y48Y = Y48 kept
T3 chain: T1 chain with F28Y, E54K
Method: as §1

[4] = target: T4, cTREM-1-Cmyc2-His6 (construct 0238), cynomolgus TREM-1 wt (cynomolgus monkey)
T4 construct: ECD with C-terminal cmyc2-His6 tag; also called wt cTREM-1
T4 chain: T1 chain with T24A, F28Y, S30N, Q32R, H70P
Method: as §1

[5] = target: T5, cynomolgus TREM-1 partly humanised with back mutation 4 (construct 0243) (cynomolgus monkey)
T5 construct: Printed R52R = R52 kept
T5 chain: T1 chain with Q32R, E54K
Method: as §1

[6] = target: T6, cynomolgus TREM-1 partly humanised with back mutation 1 (construct 0240) (cynomolgus monkey)
T6 construct: Printed A44A = A44 kept
T6 chain: T1 chain with T24A, E54K
Method: as §1

[7] = target: T7, cynomolgus TREM-1 partly humanised with back mutation 3 (construct 0242) (cynomolgus monkey)
T7 construct: Printed N50N = N50 kept
T7 chain: T1 chain with S30N, E54K
Method: as §1

[8] = target: T8, A24T/Y28F/N30S/R32Q/E54K-cTREM-1-Cmyc2-His6 (construct 0245), partly humanised with back mutation 6 (cynomolgus monkey)
T8 construct: the entry already carries the mutations
T8 chain: T1 chain with E54K, H70P
Method: as §1

B1: Fab region of mAb 0170 (Fab, V domains shown)
VH: EVQLVESGGGLVQPGGSLKLSCAASGFTFSTYAMHWVRQASGKGLEWVGRIRTKSSNYATYYAASVKGRFTISRDDSKNTAYLQMNSLKTEDTAVYYCTRDMGIRRQFAYWGQGTLVTVSS
VL: DIVLTQSPDSLAVSLGERATINCRASESVDTFDYSFLHWYQQKPGQPPKLLIYRASNLESGVPDRFSGSGSGTDFTLTISSLQAEDVAVYYCQQSNEDPYTFGQGTKLEIKR
notes: also called 0170 Fab; Fab 0170
- Kd [1]: 1 nM
- Kd [2]: 2 nM
- Kd [3]: 2 nM
- Kd [4]: 1 nM
- binding result [5]: no binding (tested: up to 50 nM Fab)
- Kd [6]: 2 nM
- Kd [7]: 1 nM
- Kd [8]: 1 nM
